Columns and labels:
[1] = biological target: T1, N-terminally FLAG-tagged full length human TACI, expressed on 293EBNA cells (plasmid pJST552) (human, UniProt O14836 1-293); assay: FACS on 293EBNA cells transfected with pJST552; rabbit anti-murine APRIL and donkey anti-rabbit-PE
T1 construct: also called flag-tagged full length TACI; TACI transfected cells; not shown: N-terminal FLAG tag (and any leader) of the pJST552 insert
T1 sequence: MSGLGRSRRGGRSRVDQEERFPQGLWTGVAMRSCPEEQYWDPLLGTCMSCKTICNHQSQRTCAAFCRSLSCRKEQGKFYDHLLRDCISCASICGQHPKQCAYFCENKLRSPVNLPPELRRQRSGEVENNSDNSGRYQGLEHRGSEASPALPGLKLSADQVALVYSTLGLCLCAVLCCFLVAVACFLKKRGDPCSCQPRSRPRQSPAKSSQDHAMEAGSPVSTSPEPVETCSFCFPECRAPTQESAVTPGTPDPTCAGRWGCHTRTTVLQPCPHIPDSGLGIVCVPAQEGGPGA
Protocol: FIG. 8 is a schematic representation of purified myc-tagged murine APRIL binding to TACI transfected cells. 293EBNA cells were transfected with expression plasmid pJST552 that expressed FLAG-tagged full length human TACI. Cells were harvested 48 hours later using 5 mM EDTA and stained with myc-tagged murine APRIL at various concentrations. No protein control was stained with detection reagents (rabbit anti-murine APRIL and donkey anti-rabbit-PE (Jackson Immnunoresearch)). Staining in FL1 of protein encoded by the cotransfected GFP expression plasmid illustrates expression efficiency.
293EBNA cells were co-transfected with a plasmids expressing full length N-terminally FLAG tagged human TACI (pJST552)(see FIG. 2), and a GFP marker, (AN050). Transfections were performed using Lipofectamine 2000 (LifeTechnologies) according to manufacturer's conditions. Transfection media was DMEM supplemented with 10% FBS, 4 mM glutamine, and 50 μM Z-VAD (BACHEM Bioscience Inc.) Cells were harvested with PBS supplemented with 5 mM EDTA at 24 hours post-transfection. Cells were washed in FACS buffer (PBS-10% FBS-0.02% NaN₃) and resuspended at a density of 5×10⁶ cells/mL. […] The samples were analyzed by FACS and plotted (FIG. 8). Cell gate analyzed is shown as R1. […]

[2] = biological target: T2, FLAG-tagged soluble muBAFF (murine, UniProt Q9WU72 127-309, limits assumed); assay: co-immunoprecipitation on protein A-Sepharose, anti-FLAG M2 Western blot
T2 construct: not shown: FLAG tag
T2 sequence (Q9WU72 127-309 limits assumed): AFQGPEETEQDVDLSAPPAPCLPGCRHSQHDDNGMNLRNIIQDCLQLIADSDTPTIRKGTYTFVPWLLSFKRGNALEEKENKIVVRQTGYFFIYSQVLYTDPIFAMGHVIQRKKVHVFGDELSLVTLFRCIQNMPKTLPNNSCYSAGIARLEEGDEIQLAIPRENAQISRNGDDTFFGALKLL
Protocol: 250 μl of Optimem containing hTACI(1-160)-Ig was mixed with various FLAG ligands of the TNF family. Some of the ligands were in Optimem while others were anti-FLAG (mAb M2)-purified. The common characteristic was that the amount used was empirically the same (500 ng for purified ligands, i.e. hBAFF, muBAFF, TRAIL, FasL, EDA). Ligands were produced in bacteria (HBAFF, TRAIL) or transiently expressed in 293 EBNA cells (all others). Control Receptors-Fc were mostly used as Optimem supernates, except TNFR1, OX40, LTBR, which were purified over protein-A columns. 1 μg of purified receptors was used. Receptor-Fc proteins (about 1 μg) were mixed with FLAG-ligands (about 500 ng). Volume was adjusted to 1.2 ml with PBS and 5 μl of protein A-Sepharose was added. Incubation was performed for 1 h at 4° C. on a wheel. Beads were harvested by centrifugation and loaded onto a minicolumn (yellow tips with 1 mm diameter frit). Washes were performed by applying vacuum at the bottom of the column to aspirate medium and 2 times 400 μl PBS washes. The dried beads were eluted with 20 μl of Citrate-NaOH pH 2.7 and the eluate was neutralized with 6 μl of 1M Tris-HCl pH 9.0. 10 μl 3x sample buffer plus DTT was added, the sample was boiled and 22 μl loaded for Western blot analysis. […] ECL was used to illuminate the signal. […]

B1: myc-tagged murine APRIL (A88), expressed in Pichia pastoris (plasmid pCMM276) (ligand)
chain: EQKLISEEDLNGGGGSKELAVLTQKHKKKHSVLHLVPVNITSKDSDVTEVMWQPVLRRGRGLEAQGDIVRVWDTGIYLLYSQVLFHDVTFTMGQVVSREGQGRRETLFRCIRSMPSDPDRAYNSCYSAGVFHLHQGDIITVKIPRANAKLSLSPHGTFLGFVKL
modifications: glycosylated (as printed in paragraph 69)
notes: also called myc-muAPRIL; Myc-Murine APRIL A88
[1]
  binding result: binds

B2: human TACI(1-160)-Ig fusion protein (plasmid PS882) (Fc fusion)
chain: MSGLGRSRRGGRSRVDQEERFPQGLWTGVAMRSCPEEQYWDPLLGTCMSCKTICNHQSQRTCAAFCRSLSCRKEQGKFYDHLLRDCISCASICGQHPKQCAYFCENKLRSPVNLPPELRRQRSGEVENNSDNSGRYQGLEHRGSEASPALPGLKLSADQV
notes: Used as conditioned medium (Optimem) of 293 cells; also called hTACI(1-160)-Ig; soluble hTACI(1-160)-Ig; not shown: human IgG Fc
[2]
  binding result: no binding (tested: 500 ng purified ligand)

From patent US20040013674A1 (APOXIS, published 2004)
